Source: the RNAGym collection of RNA variant scans (doi:10.7554/elife.80360)

B1: Hairpin Ribozyme (parent)
chain: GUCCUCUUUCACGUGCGCGUGAAAGAGAGAAGUGAACCAGAGAAACACACGUUGUGGUAUAUUACCUGGUA

Variants of: B1
Assay: self-cleavage, relative activity (ratio to wild type); higher = more cleavage; co-transcriptional

Variant	self-cleavage
C3U U67C	0.122
C4A U58C	0.293
C4G A28C	0.172
C4G G29A	0.0497
C3U U52A	0.522
C3G C46G	0.0681
C3G U70A	0.252
C3A U55G	0.193
C3A U55C	0.261
C3G A22U	0.246
C3G U52G	0.212
C3G G68U	0.102
C3U A36C	0.369
C3G C4A	0.185
C3G U60C	0.314
C3A A61G	0.186
C3A A47U	0.112
C3G A35C	0.36
C3G G32A	0.0849
C3A G27U	0.15
C3A G27A	0.27
C4A U8G	0.0842
C3U C66G	0.0901
C3G U7A	0.321

Variant	self-cleavage
C3U A11G	0.338
C3U A11C	0.402
C3G A49U	0.188
C3G A49C	0.0939
C3U A43U	0.207
C4A C16U	0.197
C3A C46A	0.219
C4A C50A	0.178
C4A C50G	0.149
C3G A47U	0.0452
C4G G13U	0.21
C4A G56A	0.114
C4G U14C	0.125
C4G G56C	0.111
C4G G51A	0.245
C4U A22G	0.236
C3G C16A	0.324
C3G U8G	0.204
C3A A23G	0.613
C3G C12U	0.26
C3G C12A	0.254
C4G A41U	0.558
C4G A41C	0.236
C3A G21C	0.489

Variant	self-cleavage
C4A C37U	0.16
C3U U62G	0.259
C3G C10G	0.182
C3G C6A	0.267
C4U A11C	0.191
C3G G51U	0.342
C3U A44C	0.0442
C4A G57C	0.156
C4A G57A	0.117
C3A A64U	0.249
C3A G42U	0.249
C3A G42A	0.146
C4A U55C	0.0693
C4A U55A	0.163
C3U U20C	0.38
C4A U14A	0.191
C3G A39U	0.114
C3G A39G	0.108
C4A G13A	0.193
C3U C37A	0.315
C3U C37G	0.262
C3A C65G	0.314
C4A U67C	0.0871
C3U C65G	0.153

Variant	self-cleavage
C3U C38G	0.201
C4A G27C	0.093
C4A G27U	0.557
C4A G27A	0.285
C3U A64G	0.212
C4G G15U	0.185
C3U A30G	0.104
C3U A30U	0.0886
C3U G25A	0.205
C3U G25U	0.187
C4A G19C	0.143
C4G G68A	0.084
C3U A26C	0.314
C3A C18G	0.602
C3A G15U	0.761
C3A G15A	0.524
C4G U8G	0.0927
C4A A24G	0.143
C3U U70A	0.305
C3U U70C	0.351
C3U A59G	0.0802
C3A G17C	0.375
C3A G17A	0.785
C3U C48G	0.159

Variant	self-cleavage
C3U C48U	0.172
C3U G40C	0.0768
C3U G40U	0.119
C3A C10G	0.631
C3A C16A	0.677
C4G C18G	0.0835
C4G C18A	0.194
C4G G21U	0.123
C4G G21C	0.231
C4A A44U	0.239
C4A C66G	0.193
C4A C66U	0.136
C4A C10G	0.164
C4A U9A	0.233
C3G U55A	0.0814
C3U U58C	0.738
C4G G42C	0.17
C4A U20A	0.0852
C3U G13U	0.429
C3G U9A	0.112
C3U A22U	0.395
C4A C12A	0.187
C4G A64C	0.167
C3G A64C	0.129

Variant	self-cleavage
C3G A64G	0.126
C4A G15U	0.182
C4A G15A	0.227
C4A G17A	0.174
C3G A11C	0.137
C3G A11G	0.18
C3A G68U	0.195
C3U G21U	0.472
C3U G21C	0.32
C3G C48A	0.0662
C3G C48G	0.196
C4G G34C	1.19
C4G A45G	0.274
C3A C38U	0.416
C3U A45U	0.159
C3G G19C	0.229
C3G G19A	0.2
C3G G19U	0.26
C4A A49U	0.189
C3A A36U	0.319
C3A A36G	0.712
C3G G42A	0.0837
C4A G54A	0.184
C4A G54C	0.133

Variant	self-cleavage
C4A G54U	0.118
C4G A71U	0.289
C4G A71G	0.241
C4A A71C	0.674
C4G U62A	0.191
C4A A11C	0.353
C4A G25A	0.169
C3A G40U	0.194
C3G U20A	0.222
C3U G68C	0.142
C4G U5C	0.112
C3U G17U	0.473
C3G A41G	0.193
C4A A43G	0.0748
C4G G40U	0.0761
C3U A31G	0.296
C3U A31C	0.267
C3G G27C	0.0838
C3G G27A	0.266
C4A G69U	0.169
C3G A44G	0.15
C3G A71G	0.308
C4G U63G	0.217
